Results on 1 substance are retold here after patent US20240277831A1.

Experiment [1] concerns the target Monomeric SARS-CoV-2 RBD (SARS-CoV-2) (UniProt P0DTC2).
Experiment [2] has as its target RBD-12GS-I53-50A trimeric component (SARS-CoV-2).
For experiment [3], the target named is RBD-16GS-I53-50A trimeric component (SARS-CoV-2).
Experiment [4] addresses RBD-8GS-I53-50A trimeric component (SARS-CoV-2).

Regarding CR3022 Fab, the Kd – broadly, the concentration at which binding is half-saturated – in experiment [1] came out at 45 nM; in experiment [2] it was 42 nM; in experiment [3] it was 56 nM; in experiment [4], 57 nM. Further, the dissociation rate constant (koff) – broadly, the rate constant with which the complex falls apart – stood at 0.009 s⁻¹ in experiment [1], 0.009 s⁻¹ in experiment [2], 0.01 s⁻¹ in experiment [3] and 0.01 s⁻¹ in experiment [4]. Further, the kon in experiment [1], in experiment [2], in experiment [3] and in experiment [4] was 200000 M⁻¹ s⁻¹ each time.
